The text below walks through data of patent publication US20240358755A1 (IMMATICS BIOTECHNOLOGIES, published 2024).

Assay [1] addresses T1, HLA-B*07:02 (human).
T1 construct: Peptide-receptive monomer in the UV-ligand exchange assay
Description: UV peptide exchange, anti-b2m ELISA; exchange yield grade. From the text:
(§1) Candidate peptides for T cell based therapies according to the present invention were further tested for their MHC binding capacity (affinity). The individual peptide-MHC complexes were produced by UV-ligand exchange, where a UV-sensitive peptide is cleaved upon UV-irradiation and exchanged with the peptide of interest as analyzed. Only peptide candidates that can effectively bind and stabilize the peptide-receptive MHC molecules prevent dissociation of the MHC complexes. To determine the yield of the exchange reaction, an ELISA was performed based on the detection of the light chain (β2m) of stabilized MHC complexes. The assay was performed as generally described in Rodenko et al. (Rodenko et al., 2006).
(§2) 96 well MAXISorp plates (NUNC) were coated over night with 2 μg/ml streptavidin in PBS at room temperature, washed 4× and blocked for 1 h at 37° C. in 2% BSA containing blocking buffer. […] Peptide-MHC monomers of the UV-exchange reaction were diluted 100-fold in blocking buffer. Samples were incubated for 1 h at 37° C., washed four times, incubated with 2 μg/ml HRP conjugated anti-β2m for 1 h at 37° C., washed again and detected with TMB solution that is stopped with […]. Absorption was measured at 450 nm.

Assay [2] concerns the target T2, HLA-A*02:01 (human).
T2 construct: Peptide-receptive MHC class I monomer in the UV-ligand exchange assay
The description is as above.
From the text: as §1, §2

The molecule APLRAGWAA had a peptide exchange yield in assay [1] of at least 75%.
In the case of SPAPSLARFLSL, the peptide exchange yield in assay [1] is at least 75%.
With SPSSNSREL, the peptide exchange yield in assay [1] lay within 50 to 75%.
LPTRSLPAF came in with a peptide exchange yield in assay [1] of 50 to 75%.
On the same count and under the same terms, next, SPSSPLLLLA: 50 to 75%.
In assay [1], APGPRSQGL showed a peptide exchange yield of 50 to 75%.
The same measure, in the same setting: then TPSHSTPSF, with 50 to 75%; and APLLPGPAA, with at least 75%.
Regarding ILMILQPQL, the peptide exchange yield in assay [2] was at least 75%.
Take RPLILIRI: the peptide exchange yield in assay [1] fell in the range of 20 to 50%.
SPVSASWIL came in with a peptide exchange yield in assay [1] of at least 75%.
Same read-out and setting: then LPALLRSL, with at least 75%; and RPSLPCRSF, with 50 to 75%.
Turning to SLKSSILFL, in assay [2], the peptide exchange yield fell in the range of 50 to 75%.
VPHHLLSSV showed a peptide exchange yield in assay [1] of at least 75%.
Regarding MPAFLSRASAL, in assay [1], the peptide exchange yield was at least 75%.
With MPWVLMSPF, in assay [1], the peptide exchange yield is at least 75%.
Molecule APSLARFLSL yielded a peptide exchange yield in assay [1] of at least 75%.
As for VVHGGMSIF, the peptide exchange yield in assay [1] fell in the range of 20 to 50%.
The same measure, in the same setting: then MPFLKVPPL, with at least 75%; and LPVHGPLPLLL, with 50 to 75%; and LPHPVNSGL, with 50 to 75%.
As to RPSPVRVAAL, the peptide exchange yield in assay [1] was at least 75%.
In assay [2], LLGVVSHSV registered a peptide exchange yield of at least 75%.
SPIGLSLIL gave a peptide exchange yield in assay [1] of at least 75%.
In turn, IPISIFKMA displayed a peptide exchange yield in assay [1] of 50 to 75%.
In assay [1], SPLPHLGPL returned a peptide exchange yield of 50 to 75%.
For RAPLPLLLL, in assay [1], the peptide exchange yield lay in the range of 50 to 75%.
In the case of SLRVPSPAL, in assay [1], the peptide exchange yield was 50 to 75%.
Regarding IQAPALLKV, in assay [2], the peptide exchange yield is at least 75%.
In assay [1], RPIWDVRSA registered a peptide exchange yield of at least 75%.
Take APQPRSLAA: the peptide exchange yield in assay [1] is at least 75%.
In assay [2], RLQEGLAAL had a peptide exchange yield of at least 75%.
In assay [1], YVGPTRLEL gave a peptide exchange yield of at least 75%.
In assay [1], YPDVPIGQL returned a peptide exchange yield of 50 to 75%.
AVDLGVLEL: the peptide exchange yield in assay [1] fell in the range of 50 to 75%.
For NPELLVILL, the peptide exchange yield in assay [1] is 50 to 75%.
Turning to RPQGVGPAA, the peptide exchange yield in assay [1] was at least 75%.
For SLSKLVATV, the peptide exchange yield in assay [2] is at least 75%.
IPLHFSTAF came in with a peptide exchange yield in assay [1] of at least 75%.
Turning to TPLTRTTL, the peptide exchange yield in assay [1] fell in the range of 50 to 75%.
RPWLSSPTGL: the peptide exchange yield in assay [1] is at least 75%.
In turn, QPAPQPLL displayed a peptide exchange yield in assay [1] of 50 to 75%.
Turning to HPRESLNMLVAF, the peptide exchange yield in assay [1] is at least 75%.
MPANFETIGF gave a peptide exchange yield in assay [1] of at least 75%.
On to MPCTTILRI, for which, in assay [1], the peptide exchange yield was at least 75%.
On the same count and under the same terms, next, MPIQVLKGL: at least 75%; ASRIQVILL: 50 to 75%; MPKLFLTAC: at least 75%.
